Assay results: patent US20060240570A1 (AXIS SHIELD ASA, published 2006)
Changes are numbered by the printed parent chain. Positions of bridges follow the written chain, without caps; N, C: chain ends. No end group written: not given here.

T1: human TC with the common polymorphism P259R (human, UniProt P20062 19-427)
T1 sequence: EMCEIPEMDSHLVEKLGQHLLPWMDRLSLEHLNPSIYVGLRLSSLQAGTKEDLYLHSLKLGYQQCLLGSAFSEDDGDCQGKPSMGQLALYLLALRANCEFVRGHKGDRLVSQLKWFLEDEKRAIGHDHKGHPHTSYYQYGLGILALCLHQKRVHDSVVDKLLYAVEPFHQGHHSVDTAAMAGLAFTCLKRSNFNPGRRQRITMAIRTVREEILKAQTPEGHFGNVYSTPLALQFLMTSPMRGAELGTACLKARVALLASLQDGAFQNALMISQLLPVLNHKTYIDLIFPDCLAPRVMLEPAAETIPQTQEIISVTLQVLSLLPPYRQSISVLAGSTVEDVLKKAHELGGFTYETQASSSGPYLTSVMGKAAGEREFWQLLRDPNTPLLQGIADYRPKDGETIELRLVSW

T2: human holotranscobalamin (holoTC) (human, UniProt P20062 19-427, cobalamin bound (non-covalent complex))
T2 construct: Recombinant human holoTC in the SPR work; also called holo-TCII
T2 chain: T1 sequence with R241P

B1: monoclonal antibody TC2 (antibody, V domains shown)
VH: QVQLKQSGPGLLQPSQSLSITCTVSGFSLTYYGVHWVRQSPVKGLEWLGVIWSGGDTDYDTTFISRLSISKDNSKGQVFFKMTSLQTDDTAIYYCARGRTYGIHFDYWGQGTTLTVSS
VL: DIVMSQSPSSLAVSVGEKVTMSCKSSQSLFNSRTRKNYLAWYQQKPGQSPKVLIYWASTRESGVPDRFTGSGSGTDFTLTISSVQAEDLAIYYCKQFYDLWTFGGGTKLEIKR
notes: Mouse IgG1, ECACC 02110742; also called mAb TC2

How the values were obtained:
[1] = molecular target: T1, human TC with the common polymorphism …; assay: method not detailed
[2] = molecular target: T2, human holotranscobalamin (holoTC); assay: SPR (Biacore); holoTC against apoTC
monoclonal antibody 3C4 = molecular target: T3, monoclonal antibody 3C4; assay: phage ELISA, 10^9 phagemid, wells coated with mAb 3C4
T3 construct: Mouse IgG1, ECACC 02110741; also called mAb 3C4; 3C4 (3CY)
T3 sequence (VH, as listed by the source, chain 1 of 2): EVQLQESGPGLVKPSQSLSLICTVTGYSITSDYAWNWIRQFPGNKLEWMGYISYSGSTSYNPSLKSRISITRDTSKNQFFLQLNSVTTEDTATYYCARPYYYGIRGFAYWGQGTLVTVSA
T3 sequence (VL, as listed by the source, chain 2 of 2): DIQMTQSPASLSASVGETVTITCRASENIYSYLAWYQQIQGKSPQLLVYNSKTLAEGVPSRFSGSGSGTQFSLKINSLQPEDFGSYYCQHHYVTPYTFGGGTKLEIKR
Method: Microtitre plates were coated with 100 μL, 1 μg/mL mAb 3C4 or unrelated control antibody in PBS over night at 4 C. Remaining binding sites were blocked with 20 mg/mL bovine serum albumin (BSA) in PBS for 1 h. Some wells were only coated with BSA. Monoclonal packaged phagemids were added at a concentration of 10¹⁰ to 10⁸ cfu per well in PBS and incubated for 1 h. Preparations of packaged phagemids were centrifuged to remove aggregates. Wells were washed 6 times with PBS containing 0.1% Tween-20 and 3 times with PBS. For detection of bound phages 100 μL of horse-radish peroxidase (HRP) conjugated […] antibody (e.g. Pharmacia) diluted 1/5000 in PBS was added to each well and incubated for 1 h at ambient temperature. ELISA plates were washed 5 times with PBS containing 0.1%
Tween-20 and 3 times with PBS. The chromogenic substrate o-Phenyldiamine in citric acid, pH 4.0 supplemented with H₂O₂ was added and the color generating reaction was stopped after 2-5 min by addition of […].

| Binder | binding result [1] | holo/apo Specificity (-fold) [2] | ELISA (absorbance units) (monoclonal antibody 3C4) |
| --- | --- | --- | --- |
| B1 | binds | 1 fold | – |
| CSGLYPWDYFMCS (disulfide 1-12 (inferred); also: displayed on phagemid) [phagemid CS1-29p, displayed peptide CSGLYPWDYFMCS] | – | – | 0.136 absorbance units |
